Where “and” joins values, the source holds several entries; their conditions need not be identical. Equal entries are not always repeated.
Columns and labels:
DcR3 (TNFRSF6B) = DcR3 (TNFRSF6B) (UniProt O95407); experiment: ELISA; TL1A variants on DcR3; who was immobilised is not told for DcR3; triplicate
DcR3 = DcR3 (UniProt O95407); experiment: ELISA; receptor (DR3-Fc; DcR3) immobilised on Maxisorp plates, TL1A variant titrated in 3-fold dilutions, overnight 4 °C, detected with anti-human TL1A-biotin and streptavidin-HRP; concentrations normalised to TL1A trimer; triplicate
DcR3, sequence (O95407 30-300): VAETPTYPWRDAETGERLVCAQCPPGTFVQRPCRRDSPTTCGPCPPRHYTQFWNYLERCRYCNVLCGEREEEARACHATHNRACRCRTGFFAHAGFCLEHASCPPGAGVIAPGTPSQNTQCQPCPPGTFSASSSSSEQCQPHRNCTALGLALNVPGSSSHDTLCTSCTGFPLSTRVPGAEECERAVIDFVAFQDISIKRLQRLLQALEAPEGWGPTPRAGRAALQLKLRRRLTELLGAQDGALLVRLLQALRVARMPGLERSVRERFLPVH

Recombinant DR3-Fc [1] = target: Recombinant DR3-Fc (UniProt Q93038); experiment: ELISA; DR3-Fc immobilised non-specifically on Maxisorp plates (overnight, 4 °C), casein block; TL1A added in 3-fold dilutions, overnight 4 °C; bound TL1A detected with polyclonal rabbit anti-human TL1A-biotin and streptavidin-HRP; concentrations normalised to TL1A trimers; triplicate
Recombinant DR3-Fc, sequence (Q93038 25-199): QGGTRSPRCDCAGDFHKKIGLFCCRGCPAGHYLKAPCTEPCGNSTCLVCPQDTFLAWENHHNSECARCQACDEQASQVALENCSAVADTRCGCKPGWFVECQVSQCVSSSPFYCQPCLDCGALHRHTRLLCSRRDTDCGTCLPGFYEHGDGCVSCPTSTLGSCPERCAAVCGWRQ

Recombinant DR3-Fc [2] = target: Recombinant DR3-Fc (UniProt Q93038); experiment: ELISA; receptor (DR3-Fc; DcR3) immobilised on Maxisorp plates, TL1A variant titrated in 3-fold dilutions, overnight 4 °C, detected with anti-human TL1A-biotin and streptavidin-HRP; concentrations normalised to TL1A trimer; triplicate
[3] = target: Fc-scTL1A (TL1W14) (human) (UniProt O95150); experiment: SEC-MALS; Waters BEH SEC column, 25 °C, PBS pH 7.4, 5 µg of sample
[4] = target: Fc-scTL1A (TL1W14) (human) (UniProt O95150); experiment: ELISA; reversed format: TL1A molecules immobilised, DR3 titrated
Target sequence in this assay (O95150 other isoform, or with tags, fused parts or gaps): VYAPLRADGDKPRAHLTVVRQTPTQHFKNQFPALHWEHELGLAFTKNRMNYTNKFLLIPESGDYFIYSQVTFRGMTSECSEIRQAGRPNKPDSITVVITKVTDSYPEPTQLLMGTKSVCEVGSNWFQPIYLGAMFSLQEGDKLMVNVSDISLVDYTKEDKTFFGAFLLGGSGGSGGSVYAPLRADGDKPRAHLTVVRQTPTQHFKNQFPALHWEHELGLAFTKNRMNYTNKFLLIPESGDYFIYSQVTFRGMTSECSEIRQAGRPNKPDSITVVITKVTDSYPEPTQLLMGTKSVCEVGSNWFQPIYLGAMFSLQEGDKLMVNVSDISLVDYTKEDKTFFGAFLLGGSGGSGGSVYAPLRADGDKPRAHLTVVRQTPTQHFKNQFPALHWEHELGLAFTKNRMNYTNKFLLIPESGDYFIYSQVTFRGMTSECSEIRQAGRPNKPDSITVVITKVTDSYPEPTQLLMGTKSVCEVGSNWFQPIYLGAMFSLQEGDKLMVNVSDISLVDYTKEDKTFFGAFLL

[5] = target: HSA-scTL1A (TL1W15) (human) (UniProt O95150); experiment: as above
HSA-scTL1A (TL1W15) (human), sequence (O95150 other isoform, or with tags, fused parts or gaps): as above

DcR3 (TNFRSF6B), sequence (O95407 30-300): as the sequence (O95407 30-300) above

| EC50 (DcR3 (TNFRSF6B)) [nM] | EC50 (DcR3) [nM] | EC50 (Recombinant DR3-Fc [1]) [nM] | EC50 (Recombinant DR3-Fc [2]) [nM] | IFNg in C57BL/6 mice 6 h after Fc-scTL1A (i.p.) with anti-CD3 antibody (i.v.) (mouse DR3 (mouse)) [pg/mL] | stoichiometry N [3] | EC50 [4] [nM] | EC50 [5] [nM] | Substance |
| --- | --- | --- | --- | --- | --- | --- | --- | --- |
| 58.5 | 10.6 | 30.2 |  |  |  |  |  | TL1W122 (N207F) (from UniProt O95150 1-251) (ligand) |
| 69.2 | 12.6 | 16.6 |  |  |  |  |  | TL1W92 (M158Y) (from UniProt O95150 1-251) (ligand) |
| 24.7 |  | 29.4 | 29.5 |  |  |  |  | TL1W38 (L123K) (from UniProt O95150 1-251) (ligand) |
| 21.2 |  | 31.4 |  |  |  |  |  | TL1W45 (E190F) (from UniProt O95150 1-251) (ligand) |
| 6.5 |  | 9.7 | 26.2 | 750 | 2 and 4 |  |  | Fc-scTL1A (TL1W14) (from UniProt O95150 84-251; O95150 84-251; O95150 84-251) (Fc fusion) |
| 176 | 32 | 17.1 |  |  |  |  |  | TL1W95 (Q167A) (from UniProt O95150 1-251) (ligand) |
|  |  |  |  |  |  | 1.5 | 3.8 | Recombinant DR3-Fc (from UniProt Q93038 25-199) (Fc fusion) |
| 85.5 | 15.5 | 17.7 |  |  |  |  |  | TL1W109 (S187L) (from UniProt O95150 1-251) (ligand) |
| 89.8 | 16.3 | 30 |  |  |  |  |  | TL1W80 (K111A) (from UniProt O95150 1-251) (ligand) |

Reference: publication PMC9709071
